For this assay, the target named is CD43 (leukosialin) on the surface of primary human neutrophils (human (endogenous in primary neutrophils)) (UniProt P16150).
UniProt P16150, sequence (P16150 20-400): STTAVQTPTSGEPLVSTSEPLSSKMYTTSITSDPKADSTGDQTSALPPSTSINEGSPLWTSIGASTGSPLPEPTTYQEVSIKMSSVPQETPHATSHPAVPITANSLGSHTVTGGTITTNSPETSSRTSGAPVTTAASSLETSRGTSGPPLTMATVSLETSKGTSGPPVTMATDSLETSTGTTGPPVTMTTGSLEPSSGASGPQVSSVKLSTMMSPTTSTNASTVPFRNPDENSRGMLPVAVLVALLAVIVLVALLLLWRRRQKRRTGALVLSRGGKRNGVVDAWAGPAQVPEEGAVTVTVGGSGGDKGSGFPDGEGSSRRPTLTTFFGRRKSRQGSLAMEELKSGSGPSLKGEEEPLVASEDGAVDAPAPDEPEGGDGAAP

On to “StcE E435D, proteolytically inactive point mutant (from UniProt O82882 36-898) (enzyme)”, for which the migration of human neutrophils across Fbg-coated transwell filters toward fMLP, 25 µg/mL protein (fold reduction) came out at 1.7.

In the case of “StcE (Secreted protease of C1-esterase inhibitor), recombinant purified protein (from UniProt O82882 36-898) (enzyme)”, the migration of human neutrophils across Fbg-coated transwell filters toward fMLP, 25 µg/mL protein (fold reduction) was found to be 1.7.

Values taken from PMC2642718.
